Results taken from article PMC10793455 (bioRxiv, 2023).

Columns and labels:
[1] = target: T1, F-actin (rabbit skeletal muscle actin filaments) (rabbit, UniProt P68135 1-377, methylated His73 (His73me)); experiment: other fluorescence titration
[2] = target: T1, F-actin (rabbit skeletal muscle actin …); experiment: fluorescence polarisation
[3] = target: T1, F-actin (rabbit skeletal muscle actin …); experiment: cryo-EM structure
[4] = target: T1, F-actin (rabbit skeletal muscle actin …); experiment: fluorescence polarisation; remark: listed apart in the source
[5] = target: Alexa-488 labeled F-actin (rabbit skeletal muscle actin) (rabbit, UniProt P68135 1-377); experiment: single-molecule TIRF microscopy
[6] = target: T1, F-actin (rabbit skeletal muscle actin …); experiment: fluorescence polarisation; remark: listed apart in the source

B1: SipAC-Core (SipA residues 512–658), unlabeled (domain or fragment)
chain: TGPFSGLKFKQNSFLSTVPSVTNMHSMHFDARETFLGVIRKALEPDTSTPFPVRRAFDGLRAEILPNDTIKSAALKAQCSDIDKHPELKAKMETLKEVITHHPQKEKLAEIALQFAREAGLTRLKGETDYVLSNVLDGLIGDGSWRA
B1 gave a Kd [1] of 81 nM.

B2: FM-SipAC-ΔArm2 (SipA residues 425–658 labeled with fluorescein maleimide) (domain or fragment)
chain: TGETTSFDEVDGVTSKSIIGKPVQATVHGVDDNKQQSQTAEIVNVKPLASQLAGVENVKTDTLQSDTTVITGNKAGTTDNDNSQTDKTGPFSGLKFKQNSFLSTVPSVTNMHSMHFDARETFLGVIRKALEPDTSTPFPVRRAFDGLRAEILPNDTIKSAALKAQCSDIDKHPELKAKMETLKEVITHHPQKEKLAEIALQFAREAGLTRLKGETDYVLSNVLDGLIGDGSWRA
modifications: fluorescein maleimide (FM) label
With B2 the Kd [2] was 120 nM.

B3: SipAC (SipA residues 425–685), unlabeled (domain or fragment)
chain: TGETTSFDEVDGVTSKSIIGKPVQATVHGVDDNKQQSQTAEIVNVKPLASQLAGVENVKTDTLQSDTTVITGNKAGTTDNDNSQTDKTGPFSGLKFKQNSFLSTVPSVTNMHSMHFDARETFLGVIRKALEPDTSTPFPVRRAFDGLRAEILPNDTIKSAALKAQCSDIDKHPELKAKMETLKEVITHHPQKEKLAEIALQFAREAGLTRLKGETDYVLSNVLDGLIGDGSWRAGPAYESYLNKPGVDRVITTVDGLHMQR
B3 was tested, and the “stoichiometry N” value [3] was 0.5 SipAC per actin subunit, the Kd [4] was 5 nM and the Kd [1] was 0.18 nM.

B4: Alexa-647-SipAC (SipA residues 425–685 labeled with Alexa-647) (domain or fragment)
chain: B3 chain
modifications: Alexa-647 label
B4 gave a Kd [5] of 0.1 nM.

B5: FM-SipAC (SipA residues 425–685 labeled with fluorescein maleimide) (domain or fragment)
chain: B3 chain
modifications: fluorescein maleimide (FM) label
With B5 the Kd [6] was roughly 0.9 nM.
